Test [1] deals with T1, eIF4G (S. cerevisiae, UniProt P39935 1-952; P07260 1-213).
T1 construct: eIF4G1, scaffolding protein of translation initiation, S. cerevisiae; present in the preparations of eIF4G; the model treats G as one unit; also called eIF4G1; S•Tag-eIF4G; source: recombinant, expression and purification previously described (Hilliker et al., 2011)
T1 sequence (looked up) 1: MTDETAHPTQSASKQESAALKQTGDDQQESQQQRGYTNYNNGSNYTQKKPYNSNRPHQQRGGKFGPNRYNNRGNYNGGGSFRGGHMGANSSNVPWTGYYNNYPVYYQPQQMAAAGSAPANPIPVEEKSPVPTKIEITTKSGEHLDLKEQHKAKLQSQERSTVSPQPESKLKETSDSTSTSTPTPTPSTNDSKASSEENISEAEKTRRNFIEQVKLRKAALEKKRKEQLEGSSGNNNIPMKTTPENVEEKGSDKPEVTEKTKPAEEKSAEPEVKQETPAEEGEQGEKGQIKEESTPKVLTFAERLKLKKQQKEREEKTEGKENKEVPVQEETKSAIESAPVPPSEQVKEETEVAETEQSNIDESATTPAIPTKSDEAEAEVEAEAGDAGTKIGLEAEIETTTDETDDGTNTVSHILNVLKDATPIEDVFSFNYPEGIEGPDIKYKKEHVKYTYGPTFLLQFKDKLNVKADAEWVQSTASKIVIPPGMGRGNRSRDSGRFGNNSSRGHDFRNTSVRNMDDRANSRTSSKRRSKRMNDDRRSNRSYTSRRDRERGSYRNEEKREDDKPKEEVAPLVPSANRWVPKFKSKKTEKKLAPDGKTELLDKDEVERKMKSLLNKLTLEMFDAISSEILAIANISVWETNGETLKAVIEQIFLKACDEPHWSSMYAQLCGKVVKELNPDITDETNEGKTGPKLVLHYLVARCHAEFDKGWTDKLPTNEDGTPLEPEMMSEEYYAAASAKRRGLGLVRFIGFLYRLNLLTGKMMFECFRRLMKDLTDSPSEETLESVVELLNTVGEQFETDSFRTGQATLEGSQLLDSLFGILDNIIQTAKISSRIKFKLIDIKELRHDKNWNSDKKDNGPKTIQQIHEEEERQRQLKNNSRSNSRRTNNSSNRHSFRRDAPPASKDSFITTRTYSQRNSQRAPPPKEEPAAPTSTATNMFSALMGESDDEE
T1 sequence (looked up) 2: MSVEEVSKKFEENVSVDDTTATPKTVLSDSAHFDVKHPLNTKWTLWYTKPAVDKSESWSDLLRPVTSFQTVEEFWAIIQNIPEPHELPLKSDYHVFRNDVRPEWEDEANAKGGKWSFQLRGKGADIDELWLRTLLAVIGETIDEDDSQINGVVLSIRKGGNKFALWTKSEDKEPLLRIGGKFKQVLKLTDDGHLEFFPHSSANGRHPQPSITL
Put plainly: global fit of RNA unwinding time courses to a thermodynamic model; K1/2 of a binding step calculated with the model of Figure 4A; RNA bound to the target before the step, no ATP. Conditions: both partners purified.

For test [2], the target named is T2, Ded1p-eIF4G complex (S. cerevisiae, UniProt P06634 1-604; P39935 1-952; P07260 1-213).
T2 construct: Ded1p, S. cerevisiae, wild type, as Wm1; eIF4G1, S. cerevisiae, as in Wm3; eIF4E, S. cerevisiae, as in Wm3; present in the preparations of eIF4G; State of the thermodynamic model; also called DG; DTG; source: formed from the purified recombinant proteins; copies: + +
The test is described as above. Conditions: both partners purified.

Test [3] concerns the target T2, Ded1p-eIF4G complex. Put plainly: global fit of RNA unwinding time courses to a thermodynamic model; K1/2 of a binding step calculated with the model of Figure 4A; RNA bound to the binder before the step, ATP bound to Ded1p and to eIF4A. The settings on record: both partners purified.
Test [4] deals with T1, eIF4G. Nature of the test: global fit of RNA unwinding time courses to a thermodynamic model; K1/2 of a binding step calculated with the model of Figure 4A; RNA bound to the target before the step, ATP bound to eIF4A. Conditions: both partners purified.
The target of test [5] is T2, Ded1p-eIF4G complex. The description is as above. Conditions: both partners purified.
Test [6] has as its target T1, eIF4G. Put plainly: global fit of RNA unwinding time courses to a thermodynamic model; K1/2 of a binding step calculated with the model of Figure 4A; RNA bound to the binder before the step, ATP bound to eIF4A. Conditions: both partners purified.
Test [7] addresses HA-tagged Ded1p (His6-Ded1p-HA3) (S. cerevisiae), P06634. Nature of the test: pull-down; Ded1p-HA held on anti-HA antibody and Protein G Dynabeads; 300 nM S•Tag-eIF4G and 1500 nM eIF4A added together; 20 µg/mL RNases A,B; 8°C overnight; washed with HRB-Na100 buffer; Western blot. Conditions: remark: other sources report otherwise. For orientation: In western blotting, separated proteins are transferred to a membrane and probed.

For test [8], the target named is T1, eIF4G. Put plainly: global fit of RNA unwinding time courses to a thermodynamic model; K1/2 of a binding step calculated with the model of Figure 4A (Kintek Global Explorer; 16 bp duplex, 25 nt 3' overhang); step without RNA and without ATP. The settings on record: both partners purified.
Test [9] concerns the target T2, Ded1p-eIF4G complex. Described as above. Conditions: both partners purified.
For test [10], the target named is Ded1p (wild type, N-terminal His6-tag) (S. cerevisiae), P06634. Nature of the test: cross-linking; formaldehyde 1% (v/v), 30 min, room temperature; Ded1p 0.3 µM, eIF4A 2 µM or as indicated, RNA 2 µM (16 bp, 25 nt 3'-overhang), 0.5 mM ADPNP-MgCl2, unwinding buffer; Western blot with α-Ded1p. Conditions: remark: other sources report otherwise.
Ded1p (wild type, N-terminal His6-tag) (S. cerevisiae), P06634, sequence (P06634 whole entry): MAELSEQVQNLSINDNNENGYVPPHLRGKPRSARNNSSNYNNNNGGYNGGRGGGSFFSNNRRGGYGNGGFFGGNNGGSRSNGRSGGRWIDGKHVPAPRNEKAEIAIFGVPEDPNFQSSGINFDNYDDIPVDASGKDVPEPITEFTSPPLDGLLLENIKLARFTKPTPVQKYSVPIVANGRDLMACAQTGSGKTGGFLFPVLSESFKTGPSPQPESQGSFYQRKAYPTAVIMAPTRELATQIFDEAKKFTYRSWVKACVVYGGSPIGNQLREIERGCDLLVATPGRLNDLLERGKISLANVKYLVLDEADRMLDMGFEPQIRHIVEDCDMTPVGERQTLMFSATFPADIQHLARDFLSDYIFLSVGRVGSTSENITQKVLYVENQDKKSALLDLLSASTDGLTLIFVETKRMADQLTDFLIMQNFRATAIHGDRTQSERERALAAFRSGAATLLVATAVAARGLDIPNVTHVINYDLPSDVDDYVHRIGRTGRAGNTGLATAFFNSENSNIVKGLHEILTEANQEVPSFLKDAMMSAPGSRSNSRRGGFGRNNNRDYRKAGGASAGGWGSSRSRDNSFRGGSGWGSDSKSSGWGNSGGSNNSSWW

T2 sequence (P06634 whole entry, one chain of several): as the sequence (P06634 whole entry) above
HA-tagged Ded1p (His6-Ded1p-HA3) (S. cerevisiae), P06634, sequence (P06634 whole entry): as above

B1: eIF4A (enzyme, S. cerevisiae, UniProt P10081 1-395, looked up)
chain: MSEGITDIEESQIQTNYDKVVYKFDDMELDENLLRGVFGYGFEEPSAIQQRAIMPIIEGHDVLAQAQSGTGKTGTFSIAALQRIDTSVKAPQALMLAPTRELALQIQKVVMALAFHMDIKVHACIGGTSFVEDAEGLRDAQIVVGTPGRVFDNIQRRRFRTDKIKMFILDEADEMLSSGFKEQIYQIFTLLPPTTQVVLLSATMPNDVLEVTTKFMRNPVRILVKKDELTLEGIKQFYVNVEEEEYKYECLTDLYDSISVTQAVIFCNTRRKVEELTTKLRNDKFTVSAIYSDLPQQERDTIMKEFRSGSSRILISTDLLARGIDVQQVSLVINYDLPANKENYIHRIGRGGRFGRKGVAINFVTNEDVGAMRELEKFYSTQIEELPSDIATLLN
notes: eIF4A, DEAD-box RNA helicase, S. cerevisiae, wild type; also called wild-type yeast eIF4A; source: recombinant, purified as described (Hilliker et al., 2011)
By Kd is commonly meant a measure of binding affinity in units of concentration. By stoichiometry N is commonly meant the number of molecules, sites or subunits per partner or assembly. For B1, the Kd in the test with eIF4G [1] is 1060 nM; with Ded1p-eIF4G complex [2], 7 nM; in the test with Ded1p-eIF4G complex [3], 0.013 nM; in the test with eIF4G [4] it was 2100 nM; with Ded1p-eIF4G complex [5] it was 14 nM; with eIF4G [6] it was 49 nM. The Kd with eIF4G [8] was 500 nM; with Ded1p-eIF4G complex [9], 0.14 nM. The relative band intensity (pull-down compared to input), with eIF4G present in [7] is 25%. Moreover, the stoichiometry N in test [10] is 1.

Values taken from article PMC4990422, “Coupling between the DEAD-box RNA helicases Ded1p and eIF4A” (eLife, 2016).
